# Measurements: US12491259B2, “Anti-variable MUC1* antibodies and uses thereof” (Minerva Biotechnologies Corporation, priority 2022, dated 2025)
# Marks after values point to notes of the source that are not given here.
# Tests used:
# [1] = system: T47D-MUC1* breast cancer cells; assay: xCELLigence real-time killing assay (impedance); type: cell-based, human
# Protocol: In this assay, impedance is measured in real-time. When the adherent cancer cells are killed and come off of the electrode surface, impedance (insulation) decreases. […] Either MNC2-MMAE, DAR 4.1, MN20A10-MMAE, DAR 5.8, MNC2-MMAF, DAR 3.7, MN20A10-MMAF, DAR 3.8, MNC2-Deruxtecan, DAR 7.2, or MN20A10-Deruxtecan, DAR 4.6, was then added to the cancer cells. […] Taxol and Triton are added as the positive killing control. […] Taxol and Triton are added as the positive killing control.
# In this assay, impedance is measured in real-time. When the adherent cancer cells are killed and come off of the electrode surface, impedance (insulation) decreases. […] Either MNC2-Exatecan, DAR 8.2, MNC2-Deruxtecan, DAR 4.0, MNC2-MMAE, DAR 4.1, or free Exatecan at 50 μM, was then added to the cancer cells.
# (§1) To assess real-time killing of target cancer cells including breast cancer cells (T47D), non-small cell lung cancer cells (NCI-H1975) and pancreatic cancer cells (HP AF II) assays were performed on an xCELLigence RTCA MP Instrument (Agilent). Target Cancer cells were seeded onto a multi-electrode well plate at a density of 5000 cells/well (100 μL of a 50,000 cells/mL stock) and incubated for 24 hr in a 37° C./5% CO2 incubator. mAb MNC2 ADCs or mAb MN20A10-ADCs were prepared as a 2× solution in corresponding growth media and 100 μL of each concentration was added to target cells. As a positive control (100% cell killing) cells were treated with either 1% triton or 1 μM Taxol instead of ADC. After 40-120 hours incubation in a 37° C./5% CO2 incubator cell killing was assessed. In this assay, impedance is measured in real-time. When the adherent cancer cells are killed and come off the electrode surface, impedance (insulation) decreases.
# (§2) MNC2-ADCs and MN20A10-ADCs were also assayed for their ability to kill both low and high MUC1* expressing cells by monitoring killing in real-time using an xCELLigence instrument. In the xCelligence system, target cancer cells, which are adherent, are plated onto electrode array 96-well plates. Adherent cells insulate the electrode and increase the impedance. The number of adherent cancer cells is directly proportional to impedance. […] Therefore, increasing impedance reflects the growth of the cancer cells and decreasing impedance reflects the killing of the cancer cells.
# [2] = system: T47D wild-type breast cancer cells; assay: xCELLigence real-time killing assay (impedance); type: cell-based, human
# Protocol: FIGS. 49A-49J show traces from the real-time killing assays performed on an xCELLigence instrument. In this assay, impedance is measured in real-time. When the adherent cancer cells are killed and come off of the electrode surface, impedance (insulation) decreases. T47D wild-type breast cancer cells were plated onto multi-electrode-well plates at 5,000 cells per well and allowed to adhere and grow for 24 hours before the addition of ADCs. Either MNC2-MMAE, DAR 4.1, MN20A10-MMAE, DAR 5.8, MNC2-MMAF, DAR 3.7, MN20A10-MMAF, DAR 3.8, MNC2-Deruxtecan, DAR 7.2, or MN20A10-Deruxtecan, DAR 4.6, was then added to the cancer cells. […] Taxol and Triton are added as the positive killing control. […] Taxol and Triton are added as the positive killing control. […]
# as §1, §2
# Breast cancer cell line T47D-wt expresses MUC1* at low to low-medium levels. Pancreatic cancer cell line HPAF II-wt expresses even lower levels of MUC1* and lung cancer cell line NCI-H1975 express still lower levels of MUC1*.
# [3] = system: cancer cells that express low levels of MUC1*; assay: xCELLigence real-time killing assay, summary over low expressers; type: cell-based; conditions: FIG. 54 and FIG. 56, DAR 8.2
# [4] = system: NCI-H1975 lung cancer cells; assay: xCELLigence real-time killing assay (impedance); type: cell-based, human; conditions: readout 0 to 120 hours, DAR 8.2 (FIG. 56)
# Protocol: FIG. 51A-51I show traces from the real-time killing assays performed on an xCELLigence instrument. In this assay, impedance is measured in real-time. When the adherent cancer cells are killed and come off of the electrode surface, impedance (insulation) decreases. NCI-H1975 lung cancer cells were plated onto multi-electrode-well plates at 5,000 cells per well and allowed to adhere and grow for 24 hours before the addition of ADCs. Either MNC2-MMAE, DAR 4.1, MN20A10-MMAE, DAR 5.8, MNC2-MMAF, DAR 3.7, MN20A10-MMAF, DAR 3.8, MNC2-Deruxtecan, DAR 7.2, or MN20A10-Deruxtecan, DAR 4.6, was then added to the cancer cells. […] Taxol and Triton are added as the positive killing control. […].
# FIGS. 56A-56D show traces from the real-time killing assays performed on an xCELLigence instrument. In this assay, impedance is measured in real-time. When the adherent cancer cells are killed and come off of the electrode surface, impedance (insulation) decreases. Here NCI-H1975 non-small cell lung cancer cells that express very low levels of MUC1*, were plated onto multi-electrode 96-well plates at 5,000 cells per well and allowed to adhere and grow for 24 hours before the addition of ADCs. Either MNC2-Exatecan, DAR 8.2, MNC2-Deruxtecan, DAR 4.0, MNC2-MMAE, DAR 4.1, or free Exatecan at 50 μM, was then added to the cancer cells.
# as §1, §2
# [5] = Toxicities in animal studies of the ADC formats; type: in vivo; conditions: each antibody incorporated into several ADC formats
# Excerpt: Exatecans have a high level of bystander effect, meaning that they can kill neighboring cells. […] It is not completely clear whether these side effects are due to the payload or to the target, HER2, which is also expressed on normal lung and normal heart. Recall that the first two patients treated with a HER2 targeting CAR T cell product died shortly after the infusion. […] More recently, yet another patient died after being treated with a different HER2-targeting ADC.
# [6] = system: DU145 hormone refractory prostate cancer cells; assay: PrestoBlue live/dead cell assay and brightfield photographs; type: cell-based; conditions: 500 nM, 20× magnification
molecule,measurement,setting,value
MNC2-Exatecan (conjugate) VH: EVQLVESGGGLVKPGGSLRLSCAASGFTFSGYAMSWVRQAPGKGLEWVSTISSGGTYIYYPDSVKGRFTISRDNAKNSLYLQMNSLRAEDTAVYYCARLGGDNYYEYFDVWGKGTTVTVSS VL: DIVLTQSPASLAVSPGQRATITCRASKSVSTSGYSYMHWYQQKPGQPPKLLIYLASNLESGVPARFSGSGSGTDFTLTINPVEANDTANYYCQHSRELPFTFGGGTKVEIKRT,concentration as low as which cancer cells are potently killed,"[1]; readout 0 to 120 hours, MNC2-Exatecan DAR 8.2, MNC2-Deruxtecan DAR 4.0 (FIG. 55)",as low as 6.2 nM and even as low as 2.1 nM
same,concentration as low as which target cancer cells are potently killed,"[2]; readout 0 to 120 hours, DAR 8.2 (FIG. 54)",56 nM
same,killing potency compared with MNC2-deruxtecan (DAR 4.0) and MNC2-MMAE (DAR 4.1),[3],more potent killing of the low MUC1* expressing cancer cells
same,concentration as low as which cancer cells are potently killed,[4],167 nM
"MN20A10: anti-MUC1* antibody, IgG2b isotype, CDRs SEQ ID NO 1-3 and 13-15 (antibody, V domains shown) VH: EVMLVESGGGLVKPGGSLKLSCAASGFTFSTYAMSWIRQTPEKRLEWVASIGRAGSTYYSDSVKGRFTISRDNVRNILYLQMSSLRSEDTAMYYCARGPIYNDYDEFAYWGQGTLVTVSA VL: NIMMTQSPSSLAVSAGEKVTMSCKSSQSVLYSSNQKNYLAWYQQKPGQSPKLLIYWASTRESGVPDRFTGSGSGTDFTLTISSVQAEDLAVYYCHQYLSSLTFGAGTKLELK",toxicities,[5],elicited no toxicities in animal studies
MN20A10-Deruxtecan (conjugate) VH: QVQLVESGGGLVKPGGSLRLSCAASGFTFSTYAMSWIRQAPGKGLEWVASIGRAGSTYYSDSVKGRFTISRDNAKNSLYLQMNSLRAEDTAVYYCARGPIYNDYDEFAYWGQGTLVTVSS VL: EIVLTQSPATLSLSPGERATLSCKSSQSVLYSSNQKNYLAWYQQKPGQAPRLLIYWASTRESGIPARFSGSGSGTDFTLTISSLEPEDFAVYYCHQYLSSLTFGGGTKVEIKR,ADC concentration at which essentially all (near total) tumor cells were killed,[1]; readout 120 hours post ADC addition,167 nM
same,concentration showing potent / effective / comparable killing,[2]; after 120 hours,167 nM
same,concentration with significant killing,"[2]; by 120 hours, DAR 4.6",167 nM
same,cell morphology in photographs,[6],rounding up and dead cells
